Biological target: the molecule itself
Experiment: cryo-EM structure; detergent-purified protein (DDM/cholate), apo, inward-facing state; C2 symmetry

B1: BmrA WT, homodimeric multidrug ABC transporter from Bacillus subtilis (natural protein)
chain: MPTKKQKSKSKLKPFFALVRRTNPSYGKLAFALALSVVTTLVSLLIPLLTKQLVDGFSMSNLSGTQIGLIALVFFVQAGLSAYATYALNYNGQKIISGLRELLWKKLIKLPVSYFDTNASGETVSRVTNDTMVVKELITTHISGFITGIISVIGSLTILFIMNWKLTLLVLVVVPLAALILVPIGRKMFSISRETQDETARFTGLLNQILPEIRLVKASNAEDVEYGRGKMGISSLFKLGVREAKVQSLVGPLISLVLMAALVAVIGYGGMQVSSGELTAGALVAFILYLFQIIMPMGQITTFFTQLQKSIGATERMIEILAEEEEDTVTGKQIENAHLPIQLDRVSFGYKPDQLILKEVSAVIEAGKVTAIVGPSGGGKTTLFKLLERFYSPTAGTIRLGDEPVDTYSLESWREHIGYVSQESPLMSGTIRENICYGLERDVTDAEIEKAAEMAYALNFIKELPNQFDTEVGERGIMLSGGQRQRIAIARALLRNPSILMLDEATSSLDSQSEKSVQQALEVLMEGRTTIVIAHRLSTVVDADQLLFVEKGEITGRGTHHELMASHGLYRDFAEQQLKMNADLENKAG
notes: BmrA, multidrug ABC transporter, Bacillus subtilis; hexa histidine-tagged pET23 BmrA; Residues 578 onward could not be modelled in PDB 8QOE; also called WT BmrA; WT protein; source: E. coli C41(DE3), purified in DDM/cholate (Ni-NTA)
Does B1 bind?
Result: binds
